Our source for the self-cleavage values is the RNAGym collection of RNA variant scans (doi:10.7554/elife.80360).

B1: HDV Ribozyme (parent)
chain: GGCCGGCAUGGUCCCAGCCUCCUCGCUGGCGCCGGCUGGGCAACAUUCCGAGGGGACCGUCCCCUCGGUAAUGGCGAAUGGGACCCA

The data set covers variants of B1. Put plainly: self-cleavage, relative activity (ratio to wild type); higher = more cleavage; co-transcriptional.
Turning to U47A U79A, the self-cleavage was 0.598. In the case of C48A G54C, the self-cleavage turned out to be 1.17. With C48A G54A, the self-cleavage stood at 1.06. Take C48A G54U: the self-cleavage turned out to be 0.975. In the case of C48A A71C it was 0.688.

Take C48A A71U: the self-cleavage was found to be 0.867. As to U47C A83G, the self-cleavage came to 0.612. Regarding U46C C66G, the self-cleavage was determined as 0.594. On to U46G G80A, for which the self-cleavage turned out to be 0.0811. In the case of C48G C86A it was 1.09; in that of C49A G52C, 0.573. In the case of C49A A83G it was 0.546. Take C49A G80C: the self-cleavage was determined as 0.0665.

Regarding C48U C85A, the self-cleavage came to 1.03. In the case of U46A G81U it was 0.271; in that of U46G G53A, 0.527. Consider C49A G73U, for which the self-cleavage turned out to be 0.272. In the case of U46G U65C it was 0.615. As for C48G C49G, the self-cleavage was 0.906.

Regarding U47C A77G, the self-cleavage turned out to be 0.612. In the case of U47C C63U it was 1.07; in that of U47G C86A, 0.814; in that of U47G C64U, 1.28. In the case of C49A C62U it was 0.933; in that of C49A C62A, 0.81. In the case of U47C G53A it was 0.87.

Take U47C G53C: the self-cleavage came out at 0.653. In the case of U46A C61U, the self-cleavage was determined as 0.61. In the case of U47G C85A it was 0.959. Turning to U47G C85G, the self-cleavage amounted to 1.18. In the case of U47A C57U it was 0.944. In the case of C48A G82C it was 0.35; in that of U47G A77G, 0.923. In the case of U47G G53U it was 0.973. On to U47A U69G, for which the self-cleavage is 1.13.

With U47A U69A, the self-cleavage turned out to be 1.02. In the case of U47C G76A it was 0.787; in that of U46C A56G, 0.643. In the case of U46G A87C it was 0.966; in that of U46G A87U, 0.67; in that of U47G G81C, 0.128. Turning to U46C C63U, the self-cleavage was determined as 0.671. On to U46C C63A, for which the self-cleavage was found to be 0.718. In the case of U47G C58U it was 0.942; in that of U47A U72A, 0.748. In the case of U47A U72G it was 0.665; in that of U46G G74U, 0.529. In the case of C48G C63G it was 0.306; in that of U46G G68A, 0.608. For U46C C61A, the self-cleavage was found to be 1.09. As to U47A G68C, the self-cleavage came to 0.982. In the case of C49A C64A it was 0.284; in that of C48G A70G, 0.772. In the case of U46G A51U it was 0.45. In the case of U46A G53C it was 0.877; in that of U46A G53A, 0.741. With C48A C66A, the self-cleavage amounted to 0.92. In the case of C48A C66U it was 0.988. In the case of U46A U69G it was 0.793; in that of U46A U69A, 1.08; in that of C49A G67U, 0.945. Turning to U46G G67A, the self-cleavage is 0.527. Take C49A C57A: the self-cleavage came out at 0.875. In the case of U46A A71U it was 0.95; in that of U46A A71C, 1.11; in that of C48U G55A, 0.75. In the case of C48U G68U it was 0.893; in that of C48U G68C, 0.959; in that of U47A G53A, 1.22. For the variant C48G G68C, the self-cleavage turned out to be 1.14. In the case of U47C C64G it was 0.511; in that of U47C C64A, 0.567; in that of U47A C62G, 0.54.

Take C48U C58A: the self-cleavage was found to be 1.06. In the case of C48U C58G it was 1.06; in that of C48G C61G, 1.06; in that of A45U G81A, 0.259. Consider C48G A77U, for which the self-cleavage came to 0.748. In the case of U46G G55U it was 0.569.

As to U46A A87C, the self-cleavage was determined as 0.744.

For C48G G54A, the self-cleavage came to 0.372. In the case of A45U U60G it was 0.643; in that of C48U G53C, 0.997.

For the variant C49A G76C, the self-cleavage was 1.22. In the case of U47C C66A it was 0.875; in that of U46G G73C, 0.499; in that of C49A A70C, 0.831. In the case of U46C A87G it was 0.727; in that of C48G C57G, 1.03; in that of C48U G82C, 0.196.

As to U46C G81U, the self-cleavage was determined as 0.302. In the case of U46A G52U it was 0.596; in that of U46A G52A, 0.776. Take C48U C61U: the self-cleavage was found to be 0.856. In the case of C48G G80C it was 0.262; in that of U46A G74A, 0.519. On to U46C C49A, for which the self-cleavage amounted to 0.54. As for U47G C49U, the self-cleavage came out at 1.32. Consider U47G C49G, for which the self-cleavage came out at 0.87. As for U47G A71U, the self-cleavage was determined as 1.18. As to U47A C75G, the self-cleavage came to 0.172. In the case of U46C C58U it was 0.7.

In the case of C48G G81C, the self-cleavage turned out to be 0.185.

For C48G G81A, the self-cleavage was found to be 0.489. In the case of U47G G82C it was 0.237; in that of U46G U79G, 0.787.

For U46G U79C, the self-cleavage turned out to be 0.0519.

As to C49A A71U, the self-cleavage turned out to be 0.849.

Take U46A A83G: the self-cleavage turned out to be 0.378. In the case of U46A A83C it was 0.323. In the case of U46A A83U it was 0.277; in that of A45U G74U, 0.305; in that of U46C G67A, 0.671.

For the variant U46C G76U, the self-cleavage came out at 1.23. In the case of U46C U47A it was 1.08. Turning to U46C U47C, the self-cleavage is 0.743. In the case of U47C G81C it was 0.151; in that of C48U C86G, 1.14; in that of C48U C86U, 1.09. In the case of C48U C86A it was 0.985. In the case of U47C A70C it was 0.739; in that of U46A G59A, 0.78; in that of C48G C64U, 0.85. C48G C64G: the self-cleavage amounted to 0.266.

Regarding U46A A78C, the self-cleavage is 0.131. A45U G55C: the self-cleavage stood at 0.956. On to A45U G55U, for which the self-cleavage was determined as 0.698. For U46G A78G, the self-cleavage stood at 0.443. In the case of U47G A87U it was 0.974.

Consider C48U G74A, for which the self-cleavage came to 0.517. In the case of U47A C85G it was 0.665. With U47A G54A, the self-cleavage stood at 0.95. In the case of U46G C48G it was 0.475; in that of U46A G68C, 0.633; in that of C48A C62A, 0.878. Regarding C48U G50U, the self-cleavage turned out to be 0.742. In the case of U46C A83G it was 0.402. In the case of U47A C84U it was 0.735; in that of U47A C84G, 0.831. In the case of U46G C75G it was 0.0639; in that of U46G C75A, 0.208; in that of U46A G67A, 0.703.

Regarding C48G C75G, the self-cleavage was 0.0639.

U46A C84G: the self-cleavage came to 0.68. For U46C G73U, the self-cleavage was determined as 0.151. Consider U46C G73A, for which the self-cleavage turned out to be 0.475. In the case of C48A A56C it was 1.18. In the case of U47A G50U it was 1.18; in that of U47A G50C, 0.855. In the case of C48A A77C it was 0.237; in that of C48A A77U, 0.673; in that of C48A A77G, 0.601.

On to U47A C48A, for which the self-cleavage is 0.973.

For U46C C64A, the self-cleavage came out at 0.569. In the case of C48A G73A it was 0.755. In the case of U47G U65C it was 0.923; in that of U47G U65G, 0.95. In the case of C48U C64A, the self-cleavage was 0.554.

U46G C49G: the self-cleavage amounted to 0.465. In the case of U46G C49U it was 0.8; in that of C48G G59C, 0.831; in that of C48G U72C, 0.449. In the case of U47A C61U it was 0.814; in that of U47A C61A, 0.886. In the case of U46C G52A it was 1.03. As for A45U G80A, the self-cleavage stood at 0.205. In the case of U47A G81A it was 0.341.
